# Laboratory results from the DeepSol protein solubility set.
# Experiment: soluble on expression in E. coli; label from the status in PepcDB or PDB records
row,Sequence,soluble on expression in E. coli
1,MEASKEFPGFPNDFHAFEVSPIPFDINSKELSLKNHSNRAILFKVKCTNNKRIRIEECSDILKPGNETTATIKKLVDTVDGDSLYVIYTLVGKEWHNERMSAWRCWERAKKQAVPTQCISVPIKRSSECEKKEKKYEKEKTKSED,soluble
2,MSRIVAIDYGRKRTGIAVSDTLQLIANGLTTVPTHELLNFIGGYVAKEPVERIIIGLPKQMNNEASENMKNIEPFVRSLKKRFPELPVEYVDERFTSVLAHRTMLEAGLKKKDRQNKALVDEISATIILQTYLESKRF,not soluble
3,VTVSTSTARSADDSDHSSEVARPTDSRRDPEVLREALQRWLAAQLPPDAAPEVTHVHLPDANGMSSETILFDATWSGEVHPLVARVAPADTTMPVFPEYDLDGQFQVMAQVREHSAVPVPVVYWSESDPGPLGAPFFVMARVSGQVPPDVMPYNFGSWVTEATEEQRALLQHSAVNVLAQLHDIDRPWERFAFLQLPGSGPTVTEALAAHIRQQRDYYEWTTLSGPRSPLIERGFAWMEDNLPDDPSPAVFCWGDARIGNMMFEDFRPVAVLDWEMATLGPRELDLGWMTYLHRFFEDIAASAGLDGMPDFLRLDDLAALYEELTGHTPRDLEYYTAYAALRQATIMLRIQERAIHFGQAVAPEDPDDMIMHRASLEAMLDGTYWEKIR,not soluble
4,MSSAAQAYARTAQRTASPREIEAQALLKAAKQLQDVVTNWEEKGAIGLQEALLFNRKLWSIFVTEAMRDDNPQSIEIRQNIANIGVFVMSQSSALQIKPEVERLQALIDINRNIAAGLSGRP,not soluble
5,MEPNNLKEELVSVFEKACSSHKERLDFICSVRESDTFSNVDVPLAPIKTIIEIAKNEENQTEILKLAIENIKTLSTVGSGQYIASHFSTHNEVAIIFCISYFLYHFNFLHDENKKQLLKRAFEAVAEKIADYLNEN,soluble
6,MGEITQYSVSPALPAGLAIDPQTGVITGTPTAVTASAVYTVTGANSVDSVQALLTIEVAAVAVPPVGLVYVDRLPEYIVGVPITYNEPAYTGGEVTQFSISPALPAGLTLNTQSGVISGTPTVELAQTTFFITASNSAGLEHHHHHH,not soluble
7,MGSDKIHHHHHHMTEATKTDFSKLNVYQKLAYVRQKAPYIQKSKRGQQYSYVGSSDVLSALNTVINQVGLILKPEIVAHQVRESQDEVWKADKVKKEPVAKKRTTYFTELELMMTWINIHNPSEIVACSWYSQGVDIEGEKGVGKALTYAEKYFLLKFFNIATDDDDPDKYQKEQLKNTTITERQIDMLNASISRVAELAGQEFEAVKSLAINDSDLNPKKAFEEYSAYDYGVISKLLAKWINFYESRQKVQEDKK,not soluble
8,MILNIRDHYLPREYWKYISLHRGPIYGYKLEAYIGADNCIHYKEIPKNPDDTLRENETIYI,not soluble
9,METEDHAFRIEDIFPFLDPYVSKWFDINYRSLTEPQKYAIPFIHEGRNVLVSSPTGTGKTLTAFLSIINELFMLARSGKLEDKIYCVYISPLKALANDVNKNLRAPLEGIYKIADEDGINLPKIRVSVRSGDTSEGERQKMARKPPHILITTPESFSLTLSSPRMRENLRDVKYVIIDEIHEISSTKRGSLLSANMERLEALRPGILRIGLSATQSP,not soluble
10,MASNFKKANMASSSQRKRMSPKPELTEEQKQEIREAFDLFDADGTGTIDVKELKVAMRALGFEPKKEEIKKMISEIDKEGTGKMNFGDFLTVMTQKMSEKDTKEEILKAFKLFDDDETGKISFKNLKRVAKELGENLTDEELQEMIDEADRDGDGEVSEQEFLRIMKKTSLY,soluble
11,MGSDKIHHHHHHMSIPIIDLSQFQISNQVRRQNVVKNIYQACHEIGFMYIQNSGISPDLLEQVFSASKSFFDSPLAVKEQLAWNNEFINTGYVGLEREHLNPNQPGDLKEAFNIKNDIIINNFSSPILLTNNPVISTFYNACTELANTVLQAFALALELPEYFFTTRHNQKNHTLRLLHYPPLQTSPKPGQVRAGEHSDYGSLTLLFQHAVGGLEVQTTRKEWIAAPLIPGMVLVNTGDLMQRWTNHIFCSTKHRVMIPNDERVKKSRYSIAFFCHPNDDTEIACLESCSQRQSPIYPPILAGEYLLSSLQLTY,not soluble
12,MGHHHHHHSHMASGFIEIANKQGLTATLLPFGATLAKLTFPDKNGKNQDLVLGFDTIDEFEKDAASIGKTVGRVANRIKNSTLHFDGKQYTMTPNNGPHYLHGGPNGLGYRKWEVVRHAPESVSFSVRANEQDDGLPGDAKIDVTYTVNDRNQLIIEHHATCDTPGLLALTNHAYWNLDGSDTVAEHFLEMEADEFVEVDDTFCPTGAIRSVTDTGFDFRSGKQLKESGKDAEELLDLDNDLVITKKTPPSTPSTYLRFWSEKSGIELSITTSYPVIHLYASKFLDCKGKKGEHYKANKALAIEPQFHSAAPNFDHFPDVSLRPGDHYCQEIVYTFSHVN,soluble
13,LKQQQQQQQQQQQQQQQQQQQQQQQQQQQQQQQQQQQQQQQQQQQQQQQQQQQQQQQQQQQQQQQQQQKSQNRTKQEQGQQSQNQQDAENKKEKQESEHKAKQQKAETEVEKQGEQKKGEPMQAQAQPEKSHQDDPEFRRLEAVESARDPSFLIRAQMQLQAQQKQRPQQSQKEW,not soluble
14,MINLSNLSAVATSVARAALGESNTSKINHAFDVASHIAGQTALRVGNSLLEQINRLNERQQQGLSEILKALRGEKPVDGVHTHSGGGLFKLARAAFDVVSVVWERDKLKPHVMSFLKALDSQGKTLFSLGKEMAKAFAESVQGPDKNNGKTESSPYASFASKVGMSKVVQRLFNELGRPGAERVRRPTSGPAPRPGGAEQQARPETPPRTRPQANGAPPPPPKAEPRPSSGRPGGAQQQARPETPPRSRPQTNSAPPPPRAEPRPASGRPGGAQQQARPETPPRSRPQTNSAPPPPKAEPRPSSGRPGGAQQQARPETPPRSRPQTNNAPPPRSNNTAGASASAKVGESGPAKPAVKPLYEWLGLSDMTASPAAVKKAYYNASMKHHPDKNPGDAGATARFQDISNAFSILSDPEKRKAYDSGRMNEKGQYV,not soluble
15,MSLTEPRQAHRLHILKVALDVPLDGVFDYLSEAPVQIGQRVVVPFGPRRQVGIVVDLADASDVAPAKLKSIIQYFDQEPVLDGEFFSLLKFCADYYQYPYGQALLSALPARLRQTEPARARQQFCYWLNSAGQAADISAIPVRQAVQRRIFAALRAHGRLNEAELAELSPGWRKGLAALRERGWIEEEQVYAGLGSTLHASSVQPELNEEQVLAVQSILQYRDTFRPWLLHGITGSGKTEVYIRLLQAVLEGNQDQALVLVPEINLTPQLEARFRTRLPQFPLVTLHSNLSESERLQNWRLAQTGAARIVIGTRLSVFTPLPGLKFMIVDEEHDTSYKQQDGMRYHARDVALVRAQRRNIPIVLGSATPALETWHNARNGRYGLLTLQQRAVSQSQLPQVNCVDVSRVQMQEGLSPQLLKALKVRLERGEQSLLFINRRGYAPVLLCNACHWIAPCMRCSSRLVVHLRQGFLRCHHCGHEQNIVRQCPSCGNADLHPTGNGTQRLEETLTRLLPEARVLRVDRDSTRRKHALSEMLSAVHVGEVDILVGTQMLAKGHDFPNLTLVGVLDTDSALFSPDFRAAERLFAQLMQVAGRAGRADKPGEVLIQTSFPEHQLFNALRVQDFAAYAASLLQEREVAQFPPCEFLALIKAEANEYGPVQRFLQFAADSARALGTDALVYDPVRPQMERLKGMERGQLLFQAATRQTLQIVLRQLTPQLRAHPLSNKIRWAVDVDPQEEGHHHHHH,not soluble
16,MTRHQTHLPFHIVQEGNSIDKPPYSYVALIAMAIDASPDKRMTLNQIYKFIEAKFPYYRDADAKRKQGWQNSIRHNLSLNDCFVKKARDGQSCANDRKGNYWQMVADNAPQFDNGNFKRRRVKRLGIGKMGYANTTETTETGTILQQQLPFFNGLKWPQNIQTMDPFQFFKFQYPNSITDSANTSQINNSSSSSSSFDTSIYTSAFPIPTSHFDTNLVAPSQPPPVVSDVEVVPSDTVKEEVLVDMKPLIPGISSTTFLTSLQMTDPRSIEQQQLLSTASNMYPNAFMPPYTNWSCQPTTTFTGLSFDDPSLYGYGQQFPASS,not soluble
17,SISTHESQKLREYYRLLNLDEGCSVDDVRESFHKLARQYHPDSGSSDADSATFIKIEEAYRNVLSHAIKRMHAGQDKAEDAAEDEEEGKFKYNTPQHRHYLSFEGVGFGTPSQREKQYRQFRADRATEQVMEYQRQKLQREFFANSITVKDVRQSKQQKITQAIERLVEDLIQESMAKGDFDNLSGKGKPLKKFSGCSYIDPMTHNLNRILIDNGYQPEWILMQKEIKDTIEQLREALLMSRKKLGNPLSPTEQKQWAQVCEQFQEKIRKLNKRINDFNLIVPILTRQKVHFDAQKEIIRVQEMYGAFVEANEVTEENQTDVSQGEESKTPRVKAGFLNWLNLWKSIKI,soluble
18,MMVVKVKMLYWVDEVGGRAESMEIELKPFGYRTAPITQWEVLIAAEDVEVEKGKPVIVRVEPVFLPGNTLVGPLSIMRHALGTLVDVVECGVPGRVEDEKCISRVLFLPVEDGVIKKGDMVGVLKVFYIKTGLLTRILGLEPPKVELKKGFHEANIVWRDNGNIYREPAKVTILGYMRSHIGVWELLVADETVRVKRGDVLRIRIKEVRLPPNTVVVPLPVMRNAFGTVLDVVQLGKPSRVEEEKTLHQAIFLAVEDGVIEEGDLIGVINVYYVGLGDFKPLVQDKPPQKVRIVYRSGDGIVKREVEVEPFGYRRSPVGKWEALIADESKPVRYGEPVVVKVKRVRVPPKTILYPLHIMRHAYGTVADVFCDCKPWKVEEGGEIKKVVFLPVMDGEIKEGELLGIINLHDVELSPLGRVRQWLDNWLTEMGRTFDEGDWPLWLEHHHHHH,soluble
19,MFEAKLANAGLLKKIVESIKDLVTDAPFDCSETAMSLQAMDSSHVALVSLKLEVGLFDTYRCDRTINLGLSLANMSKALKCANNDDTCMLKYEENEGDSIIFTFADPKRDKTQDVTVKMMDIDSEHLGIPDQDYAVVCEMPAGEFQKTCKDLSTFSDSLNITATKAGIVFTGKGDIGSSVVTYSPSSNTDDETEAVTLEVKDPVNVNFSIKYMNQFTKATALSDRVRLSLCNDVPVVVEYPIEENGYLRFYLAPKIDDDENMD,soluble
20,MSLTPSMRRTRIVCISDTHNCQVKLPEGDVLIHAGDLTNQGSHAELAKTVAWLEKQDFEAKIVIAGNHDITLDPEFYAEHGLYFHNKNPQSHDECLRLFTSSPSITYLSHGSANISLTSPSGPRTHFKVFGSPYSPRHGLWAFYYDAPQNPSNWSDLTSLWESIPLDTDIVVTHTPPRMHCDETDERRATGCEALRQALWRVRPQLVVCGHIHDGRGAERVMWDLNCRNVAYQEESVVRWEDPGQGNNKTCLVDLTGKKAPSEGHHHHHH,soluble
21,MSLKVFYMNVVIITGAASGIGHALSQVCLSNGKTIVMVDKNQDKLHTEAQSFMTKFSPEHVICFACDVTQPSEVERLAEYSCKQLGQVDWIFNNAGIIGNLLPAWELQENDINQVMQVNLHGMLNIIRSFMPYLFKQNFRSHIINMASLYALCTGSQMAAYSMSKHAVLALSESLYFDLNRLKKPVDVSVVFPSFTDTSLLASSGKLNHSPIHNQLNNLLAHSRPAIEVAEHIVREVEQKRFYILPDKEVKGYCEDRTKAILLQENPHRNSVEQLMCSLLKRQSSEANEGHHHHHH,soluble
22,MAVKHKSESLKHEEGAAKKAKTGLLKLKKIMDIESNVVKYSICIPTTVIDNCNNLEQVTFTAYQIARTAVLFNVQEIIVLDQSKDKKHEKKSRSKETISDCLLLATLLQYFVTPPNLLDTTFKKKNKLYLKCASTFPPLNQLPFMNASAEQHYKEGLSIARDSSKGKSDDALTNLVYIGKNQIITLSNQNIPNTARVTVDTERKEVVSPIDAYKGKPLGYHVRMASTLNEVSEGYTKIVWVNSGDFHYDEELSKYHKVETKLPYIAKLKKSSTSEKPCNILLIFGKWGHLKRCFRRSDLESSSLHHYFSGQLQFPASVPQGNIPIQDSLPIALTMFQRWAS,soluble
